Assay results from US10357539B2, “Use of peptides that block metadherin-SND1 interaction as treatment for cancer” (THE TRUSTEES OF PRINCETON UNIVERSITY, priority 2014, dated 2019).
Positions count from the first letter of the chain named. In names and notes the source's numbering stands. Where no end group is shown, it is not given here.

B1: MTDH fragment 364-582: GST-tagged MTDH fragment, amino acids 364-582 of SEQ ID NO: 1 (protein, listed as Homo sapiens)
chain: YQWDVSRNQPYIDDEWSGLNGLSSADPNSDWNAPAEEWGNWVDEERASLLKSQEPIPDDQKVSDDDKEKGEGALPTGKSKKKKKKKKKQGEDNSTAQDTEELEKEIREDLPVNTSKTRPKQEKAFSLKTISTSDPAEVLVKNSQPIKTLPPATSTEPSVILSKSDSDKSSSQVPPILQETDKSKSNTKQNSVPPSQTKSETSWESPKQIKKKKKARRET
modifications: GST tag
B2: TPM3: MTDH triple-point mutant W404D, D406R and E407R (protein)
chain: B1 chain with W41D, D43R, E44R
modifications: left off: a dimerising Fc or GST
notes: MTDH triple-point mutant W404D, D406R and E407R
B3: murine TPM1: murine Mtdh triple mutant D386R, D390R, W391D (protein, UniProt Q80WJ7 1-579, looked up, variant D386R D390R W391D)
Protein LYRIC: MAARSWQDELAQQAEEGSARLRELLSVGLGFLRTELGLDLGLEPKRYPGWVILVGTGALGLLLLFLLGYGWAAACAGARKKRRSPPRKREEAAPPTPAPDDLAQLKNLRSEEQKKKNRKKLPEKPKPNGRTVEVPEDEVVRNPRSITAKQAPETDKKNEKSKKNKKKSKSDAKAVQNSSRHDGKEVDEGAWETKISHREKRQQRKRDKVLTDSGSLDSTIPGIENIITVTTEQLTTASFPVGSKKNKGDSHLNVQVSNFKSGKGDSTLQVSSRLNENLTVNGGGWSEKSVKLSSQLSEEKWNSVPPASAGKRKTEPSAWTQDTGDTNANGKDWGRNWSDRSIFSGIGSTAEPVSQSTTSDYQWDVSRNQPYIDDEWSGLNGLSSARPSSRDNAPAEEWGNWVDEDRASLLKSQEPISNDQKVSDDDKEKGEGALPTGKSKKKKKKKKKQGEDNSHTQDTEDLEKDTREELPVNTSKARPKQEKACSLKTMSTSDPAEVLIKNSQPVKTLPPAISAEPSITLSKGDSDNSSSQVPPMLQDTDKPKSNAKQNSVPPSQTKSETNWESPKQIKKKKKARRET
B4: murine TPM2: murine Mtdh triple mutant E396R, E397R, W398D (protein, UniProt Q80WJ7 1-579, looked up, variant E396R E397R W398D)
Protein LYRIC: B3 Protein LYRIC with R386D, R390D, D391W, E396R, E397R, W398D
B5: murine W394A: murine MTDH mutant W391A, corresponding to human W394A (protein)
chain: B3 Protein LYRIC with R386D, R390D, D391A
B6: murine W401A: murine MTDH mutant W398A, corresponding to human W401A (protein)
chain: B3 Protein LYRIC with R386D, R390D, D391W, W398A

target: T1, SND1 (Homo sapiens, UniProt Q7KZF4); test: GST-mediated pull-down of SND1 by GST-tagged MTDH fragments and mutants; assay type: binding; details: His6-SND1ΔC (1-339); Coomassie blue staining
T1 construct: 15 μg of His-SND1 (16-339) was added to the resin; made in house; host or cells: E. coli DH5α
T1 sequence (Q7KZF4 1-339): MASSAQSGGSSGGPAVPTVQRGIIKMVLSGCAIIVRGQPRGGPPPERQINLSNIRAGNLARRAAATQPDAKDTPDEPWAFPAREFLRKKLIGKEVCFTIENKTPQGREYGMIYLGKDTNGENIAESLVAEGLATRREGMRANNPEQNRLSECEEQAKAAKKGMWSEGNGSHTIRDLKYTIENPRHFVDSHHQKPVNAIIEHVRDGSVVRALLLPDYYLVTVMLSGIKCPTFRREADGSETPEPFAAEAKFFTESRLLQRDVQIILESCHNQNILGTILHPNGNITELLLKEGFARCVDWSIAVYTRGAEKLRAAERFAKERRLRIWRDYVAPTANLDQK
In short: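 GST-MTDH fragments or mutants (~20 μg) on glutathione resin incubated with 15 μg His-SND1 (16-339) in 25 mM Tris pH 8.0, 150 mM NaCl, 3 mM DTT plus 2 mg/ml BSA. Bound protein resolved by SDS-PAGE, Coomassie-stained; bound SND1 ratio quantified by densitometry over 3 repeats.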

| Molecule | SND1-binding of MTDH fragments and triple mutants, in vitro |
| --- | --- |
| 22 amino-acid fragment (residues 386-407): GST-tagged minimal SND1-binding fragment of MTDH, residues 386-407 (SSADPNSDWNAPAEEWGNWVDE; also: GST-tagged fragment (tag left off)) | sufficient for SND1-binding |
| B1 | bound stoichiometrically |
| B2 | bound SND1ΔC as effectively as the WT MTDH |

target: T2, SND1 (Mus musculus, UniProt Q78PY7); test: Anti-MTDH immunoprecipitation from PyMT;Mtdh−/− tumor cells reconstituted with murine MTDH; assay type: cell-based; details: stably expressed in PyMT;Mtdh−/− tumor cells
T2 construct: endogenous in cells; host or cells: PyMT;Mtdh−/− (A9) or PyMT;Mtdh+/+ (A13) mouse mammary epithelial/tumor cells
T2 sequence (Q78PY7 1-910): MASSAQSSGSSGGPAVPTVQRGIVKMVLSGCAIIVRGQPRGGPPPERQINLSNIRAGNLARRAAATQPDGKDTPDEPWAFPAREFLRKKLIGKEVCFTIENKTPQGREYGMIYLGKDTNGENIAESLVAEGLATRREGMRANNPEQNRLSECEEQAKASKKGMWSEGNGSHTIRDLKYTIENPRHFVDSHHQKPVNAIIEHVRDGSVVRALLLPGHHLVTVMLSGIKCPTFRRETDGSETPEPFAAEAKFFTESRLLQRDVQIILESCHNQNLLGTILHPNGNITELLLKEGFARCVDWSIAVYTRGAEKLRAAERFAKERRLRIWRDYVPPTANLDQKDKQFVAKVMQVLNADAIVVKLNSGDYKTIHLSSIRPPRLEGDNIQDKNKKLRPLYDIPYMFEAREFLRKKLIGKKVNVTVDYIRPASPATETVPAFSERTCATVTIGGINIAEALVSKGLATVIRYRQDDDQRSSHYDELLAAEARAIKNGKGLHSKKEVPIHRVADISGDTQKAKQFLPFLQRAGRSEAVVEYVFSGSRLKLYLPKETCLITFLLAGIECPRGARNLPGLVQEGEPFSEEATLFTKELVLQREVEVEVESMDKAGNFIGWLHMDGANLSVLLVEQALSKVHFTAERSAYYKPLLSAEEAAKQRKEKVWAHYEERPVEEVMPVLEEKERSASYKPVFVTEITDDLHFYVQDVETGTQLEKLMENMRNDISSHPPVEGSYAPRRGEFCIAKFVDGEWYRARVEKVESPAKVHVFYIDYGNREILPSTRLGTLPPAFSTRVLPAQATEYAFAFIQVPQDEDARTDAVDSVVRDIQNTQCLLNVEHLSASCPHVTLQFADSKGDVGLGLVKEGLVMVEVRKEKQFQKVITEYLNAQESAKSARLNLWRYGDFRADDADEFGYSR
Procedure: (FIG. 8A, FIG. 8E) Lysates from PyMT;Mtdh−/− MECs reconstituted with vector control, WT or mutant murine MTDH were immunoprecipitated with anti-MTDH antibody and immunoblotted for indicated proteins. (FIG. 8B, FIG. 8F) Mammosphere assays were performed with PyMT;Mtdh−/− pMECs reconstituted with indicated Mtdh constructs. (FIG. 8C, FIG. 8D, FIG. 8G, FIG. 8H) In vivo tumor formation (FIG. 8C, FIG. 8G for tumor incidence; FIG. 8D, FIG. 8H for tumor volumes) were performed at limiting numbers using PyMT;Mtdh−/− pMECs reconstituted with indicated WT or mutant MTDH. *Note: mouse W391D MTDH corresponds to human W394D MTDH; and mouse W398D MTDH corresponds to human W401D MTDH. Statistics: (FIG. 8B, […]) Student's t-test. (FIG. 8C, FIG. 8G) Limiting dilution analysis. (FIG. 8D, FIG. 8H) Mann-Whitney test. Data represent mean±SEM. ***p<0.001, **p<0.01, *p<0.05.
(FIG. 23A) Lysates from PyMT;Mtdh−/− tumor cells reconstituted with vector control, WT or mutant murine MTDH were immunoprecipitated with anti-MTDH antibody and immunoblotted for indicated proteins. Note all amino acid annotations are based on human MTDH. W394 and W401 of human MTDH correspond to W391 and W398 in murine MTDH, respectively. (FIG. 23B) Mammosphere assays were performed with PyMT;Mtdh−/− tumor cells reconstituted with indicated MTDH constructs. (FIG. 23C-E) In vivo tumor formation (FIG. 23C for tumor incidence; FIG. 23D, FIG. 23E for tumor volumes) were performed at limiting numbers using PyMT;Mtdh−/− tumor cells reconstituted with indicated WT or mutant MTDH. Statistics: (FIG. 23B) Student's t-test. Data represent mean±SEM. (FIG. 23C) Limiting dilution analysis. (FIG. 23D, FIG. 23E) Mann-Whitney test. **p<0.01, *p<0.05.
Immunoprecipitation and western blot For immunoprecipitation (IP) experiments, cultured cells were washed in cold PBS and lysed in lysis buffer (20 mM Tris pH 7.4, 0.15 M NaCl, 1 mM EDTA, 1 mM EGTA, 1% Tx-100, 0.0025 M Na2P2O7, 1 mM α-glycerolphosphate, 1 mM Na3VO4, and 1 mM NaF) with an EDTA-free protease inhibitor mixture (Roche Applied Science) and PMSF. Cell lysates were then incubated on ice for 10 min, centrifuged, and precleared by incubating with protein A/G beads (Santa Cruz Biotechnology) for 1 h at 4° C. For IP bead preparation, 30 μl of protein A/G beads were incubated with 5 μg of antibodies for 2 h at 4° C. IPs were carried out for overnight at 4° C., and beads were centrifuged, washed and subsequently boiled for 5 min in SDS protein loading buffer to elute bound protein. IP lysates were subjected to western blotting with indicated antibodies. […]

| Molecule | interaction of murine MTDH mutants with SND1 |
| --- | --- |
| B3 | lost the ability to interact with SND1 |
| B4 | lost the ability to interact with SND1 |
| B5 | completely lost the ability to interact with SND1 |
| B6 | completely lost the ability to interact with SND1 |
